Earlier results, collected in patent US7037697B2, “Isozyme of autoclavable superoxide dismutase (SOD), a process for the identification and extraction of the SOD and use of the said SOD in cosmetic, food, and pharmaceutical compositions” (Council of Scientific & Industrial Research, priority 2000, dated 2006).

B1: yeast: Cu/Zn-SOD from yeast (protein, UniProt P00445 2-154, looked up)
Superoxide dismutase [Cu-Zn]: VQAVAVLKGDAGVSGVVKFEQASESEPTTVSYEIAGNSPNAERGFHIHEFGDATNGCVSAGPHFNPFKKTHGAPTDEVRHVGDMGNVKTDENGVAKGSFKDSLIKLIGPTSVVGRSVVIHAGQDDLGKGDTEESLKTGNAGPRPACGVIGLTN

Conditions: Cu/Zn-SOD, Bonaccorsi di Patti et al. 1994

Molecule | conformational melting temperatures [°C]
ox: Cu/Zn-SOD from ox | 88.05
B1 | 73.1
